The numbers were not newly measured in article PMC4944212, which cites them from elsewhere.

Where two headings read alike, the source gives them in different places.

What is called Kd is the free concentration of one partner at which half of the binding sites on the other are occupied at equilibrium, for simple one-to-one binding.

The target of series [1] is SosCat SosCat catalytic site (Homo sapiens) (UniProt Q07889).
Series [2] has as its target SosCat SosCat (Homo sapiens) (UniProt Q07889).
Series [3] has the same target. The series is described as follows: fluorescence titration.

Turning to H-Ras (from UniProt P01112), the Kd was 21 µM in series [1], 54 µM in series [2] and 5 µM in series [3].
